We go through 1 variant from IntAct's records for PubMed 28559451.

To fix the notation:
B1: UL16-binding protein 6 (Homo sapiens), Q5VY80 (parent)
chain: MAAAAIPALLLCLPLLFLLFGWSRARRDDPHSLCYDITVIPKFRPGPRWCAVQGQVDEKTFLHYDCGNKTVTPVSPLGKKLNVTMAWKAQNPVLREVVDILTEQLLDIQLENYTPKEPLTLQARMSCEQKAEGHSSGSWQFSIDGQTFLLFDSEKRMWTTVHPGARKMKEKWENDKDVAMSFHYISMGDCIGWLEDFLMGMDSTLEPSAGAPLAMSSGTTQLRATATTLILCCLLIILPCFILPGI

The variants in the test derive from B1. The note with it: with nkg2d_human KLRK1, P26718.
nkg2d_human KLRK1, P26718, sequence (P26718 whole entry): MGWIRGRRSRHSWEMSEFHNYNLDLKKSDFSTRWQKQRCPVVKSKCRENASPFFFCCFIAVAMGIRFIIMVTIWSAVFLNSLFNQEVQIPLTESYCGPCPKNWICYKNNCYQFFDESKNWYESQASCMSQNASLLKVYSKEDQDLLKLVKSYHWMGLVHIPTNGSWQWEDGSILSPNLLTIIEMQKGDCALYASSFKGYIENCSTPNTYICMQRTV
Regarding L106R, the “effect of a mutation on the interaction” value was “decreasing interaction strength”.
